The results in this text go back to PMC9462685 (Science Advances, 2022).

The series concerns the molecule itself. The experiment in a line: SEC.

B1: Sr35^R157A (receptor)
chain: MEIAMGAIGSLLPKLGELLIGEITLEKKVRKGIESLITELKLMQAVLSKVSKVPADQLDEGVKIWAGNVKELSYQMEDIVDAFMVRVGDGGESTNPKNRVKKILKKVKKLFKNGKDLHRISAALEEVVLQAKQLAELRQRYEQEMRDTSANTSVDPAMMALYTDVTELVGIEETRDKLINMLTEGDDWSKHPLKTISIVGFGGLGKTTLAKAAYDKIKVQFDCGAFVSVSRNPEMKKVLKDILYGLDKVKYENIHNAARDEKYLIDDIIEFLNDKRYLIVIDDIWNEKAWELIKCAFSKKSPGSRLITTTRNVSVSEACCSSEDDIYRMEPLSNDVSRTLFCKRIFSQEEGCPQELLKVSEEILKKCGGVPLAIITIASLLANKGHIKAKDEWYALLSSIGHGLTKNRSLEQMKKILLFSYYDLPSYLKPCLLYLSIFPEDREIRRARLIWRWISEGFVYSEKQDISLYELGDSYFNELVNRSMIQPIGIDDEGKVKACRVHDMVLDLICSLSSEENFVTILDDPRRKMPNSESKVRRLSIQNSKIDVDTTRMEHMRSVTVFSDNVVGKVLDISRFKVLRVLDLEGCHVSDVGYVGNLLHLRYLGLKGTHVKDLPMEIGKLQFLLTLDLRGTKIEVLPWSVVQLRRLMCLYVDYGMKLPSGIGNLTFLEVLDDLGLSDVDLDFVKELGRLTKLRVLRLDFHGFDQSMGKALEESISNMYKLDSLDVFVNRGLINCLSEHWVPPPRLCRLAFPSKRSWFKTLPSWINPSSLPLLSYLDITLFEVRSEDIQLLGTLPALVYLEIWNYSVFEEAHEVEAPVLSSGAALFPCATECRFIGIGAVPSMFPQGAAPRLKRLWFTFPAKWISSENIGLGMRHLPSLQRVVVDVISEGASREEADEAEAALRAAAEDHPNRPILDIW
Regarding B1, the binding result is listed as “binds”.

B2: Sr35^Δ20 (domain or fragment)
chain: GEITLEKKVRKGIESLITELKLMQAVLSKVSKVPADQLDEGVKIWAGNVKELSYQMEDIVDAFMVRVGDGGESTNPKNRVKKILKKVKKLFKNGKDLHRISAALEEVVLQAKQLAELRQRYEQEMRDTSANTSVDPRMMALYTDVTELVGIEETRDKLINMLTEGDDWSKHPLKTISIVGFGGLGKTTLAKAAYDKIKVQFDCGAFVSVSRNPEMKKVLKDILYGLDKVKYENIHNAARDEKYLIDDIIEFLNDKRYLIVIDDIWNEKAWELIKCAFSKKSPGSRLITTTRNVSVSEACCSSEDDIYRMEPLSNDVSRTLFCKRIFSQEEGCPQELLKVSEEILKKCGGVPLAIITIASLLANKGHIKAKDEWYALLSSIGHGLTKNRSLEQMKKILLFSYYDLPSYLKPCLLYLSIFPEDREIRRARLIWRWISEGFVYSEKQDISLYELGDSYFNELVNRSMIQPIGIDDEGKVKACRVHDMVLDLICSLSSEENFVTILDDPRRKMPNSESKVRRLSIQNSKIDVDTTRMEHMRSVTVFSDNVVGKVLDISRFKVLRVLDLEGCHVSDVGYVGNLLHLRYLGLKGTHVKDLPMEIGKLQFLLTLDLRGTKIEVLPWSVVQLRRLMCLYVDYGMKLPSGIGNLTFLEVLDDLGLSDVDLDFVKELGRLTKLRVLRLDFHGFDQSMGKALEESISNMYKLDSLDVFVNRGLINCLSEHWVPPPRLCRLAFPSKRSWFKTLPSWINPSSLPLLSYLDITLFEVRSEDIQLLGTLPALVYLEIWNYSVFEEAHEVEAPVLSSGAALFPCATECRFIGIGAVPSMFPQGAAPRLKRLWFTFPAKWISSENIGLGMRHLPSLQRVVVDVISEGASREEADEAEAALRAAAEDHPNRPILDIW
On to B2, for which the binding result is given as “binds”.
